Results published in US20160272683A1 (Novo Nordisk, published 2016).
Numbered stars: 1 amine (or outer) side, 2 acyl side, 3 side chain; on linkers, the order of the positions; unused ones are H or OH. Square brackets hold non-standard residues; d marks the D form. Side chains are listed from the residue outwards. * marks the point of attachment. C20 diacid = O=C(O)CCCCCCCCCCCCCCCCCCC(=O)*; C18 diacid = O=C(O)CCCCCCCCCCCCCCCCC(=O)*; γGlu = O=C(O)[C@H](CCC(=O)[*:2])N[*:1]

T1: human amylin receptor (human calcitonin receptor + human RAMP3) (human) (UniProt P30988)
T1 sequence (looked up) 1: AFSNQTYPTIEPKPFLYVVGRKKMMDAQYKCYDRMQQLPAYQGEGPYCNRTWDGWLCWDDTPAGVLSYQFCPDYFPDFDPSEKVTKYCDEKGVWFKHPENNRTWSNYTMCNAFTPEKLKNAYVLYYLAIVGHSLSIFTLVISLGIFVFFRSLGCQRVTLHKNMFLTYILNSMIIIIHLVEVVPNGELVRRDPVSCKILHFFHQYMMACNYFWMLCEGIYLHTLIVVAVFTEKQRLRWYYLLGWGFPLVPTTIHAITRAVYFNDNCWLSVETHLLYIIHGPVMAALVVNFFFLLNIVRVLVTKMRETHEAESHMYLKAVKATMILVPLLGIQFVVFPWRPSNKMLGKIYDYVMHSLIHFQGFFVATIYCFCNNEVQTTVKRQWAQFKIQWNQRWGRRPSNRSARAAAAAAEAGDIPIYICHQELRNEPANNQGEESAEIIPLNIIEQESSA
T1 sequence (looked up) 2: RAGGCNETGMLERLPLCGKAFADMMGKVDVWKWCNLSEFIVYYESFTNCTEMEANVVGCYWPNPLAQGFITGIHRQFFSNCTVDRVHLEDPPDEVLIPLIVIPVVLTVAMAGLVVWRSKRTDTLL


Experiments:
[1] = molecular target: rat calcitonin receptor (rat) (UniProt P32214); assay: SPA competition vs 125I-calcitonin, membranes with rat CTR (Assay VIII)
[2] = molecular target: rat amylin receptor (rat calcitonin receptor with rat RAMP 3) (rat) (UniProt P32214); assay: SPA competition vs 125I-rat amylin, membranes with rat CTR + rat RAMP3 (Assay VI)
[3] = molecular target: T1, human amylin receptor (human calcitonin receptor + human RAMP3) (human); assay: whole-cell competition vs 125I-rat amylin (Assay Va)

Chain of [N-terminal(C18 diacid-gGlu-2xOEG), des1, 4G, 9V, 15Q, 21Q, 23Y, 30S, 31G, 32T, 33Y]mimylin (peptide) (peptide): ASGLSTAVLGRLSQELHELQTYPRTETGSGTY

Row | Molecule | IC50 [1] | IC50 [2] | IC50 [3]
1 | [N-terminal(C18 diacid-gGlu-2xOEG), des1, 4G, 9V, 15Q, 21Q, 23Y, 30S, 31G, 32T, 33Y]mimylin (peptide) | 0.032 nM | 0.357 nM | 0.801 nM
2 | {C20 diacid-γGlu}-ASELSTAVLGRLSQELHELQTYPRTETGSGTY-NH2 (SMILES CC(C)C[C@H](NC(=O)[C@H](CCCNC(=N)N)NC(=O)CNC(=O)[C@H](CC(C)C)NC(=O)[C@@H](NC(=O)[C@H](C)NC(=O)[C@@H](NC(=O)[C@H](CO)NC(=O)[C@H](CC(C)C)NC(=O)[C@H](CCC(=O)O)NC(=O)[C@H](CO)NC(=O)[C@H](C)NC(=O)CC[C@H](NC(=O)CCCCCCCCCCCCCCCCCCC(=O)O)C(=O)O)[C@@H](C)O)C(C)C)C(=O)N[C@@H](CO)C(=O)N[C@@H](CCC(N)=O)C(=O)N[C@@H](CCC(=O)O)C(=O)N[C@@H](CC(C)C)C(=O)N[C@@H](Cc1c[nH]cn1)C(=O)N[C@@H](CCC(=O)O)C(=O)N[C@@H](CC(C)C)C(=O)N[C@@H](CCC(N)=O)C(=O)N[C@H](C(=O)N[C@@H](Cc1ccc(O)cc1)C(=O)N1CCC[C@H]1C(=O)N[C@@H](CCCNC(=N)N)C(=O)N[C@H](C(=O)N[C@@H](CCC(=O)O)C(=O)N[C@H](C(=O)NCC(=O)N[C@@H](CO)C(=O)NCC(=O)N[C@H](C(=O)N[C@@H](Cc1ccc(O)cc1)C(N)=O)[C@@H](C)O)[C@@H](C)O)[C@@H](C)O)[C@@H](C)O) [[N-terminal(C20 diacid-gGlu), des1, 9V, 15Q, 21Q, 23Y, 30S, 31G, 32T, 33Y]mimylin] | 0.021 nM | 0.146 nM | 0.278 nM
3 | {C20 diacid-γGlu}-ASELSTAALGRLSAELHELATYPRTETGSGAP-NH2 (SMILES CC(C)C[C@H](NC(=O)[C@H](C)NC(=O)[C@H](C)NC(=O)[C@@H](NC(=O)[C@H](CO)NC(=O)[C@H](CC(C)C)NC(=O)[C@H](CCC(=O)O)NC(=O)[C@H](CO)NC(=O)[C@H](C)NC(=O)CC[C@H](NC(=O)CCCCCCCCCCCCCCCCCCC(=O)O)C(=O)O)[C@@H](C)O)C(=O)NCC(=O)N[C@@H](CCCNC(=N)N)C(=O)N[C@@H](CC(C)C)C(=O)N[C@@H](CO)C(=O)N[C@@H](C)C(=O)N[C@@H](CCC(=O)O)C(=O)N[C@@H](CC(C)C)C(=O)N[C@@H](Cc1c[nH]cn1)C(=O)N[C@@H](CCC(=O)O)C(=O)N[C@@H](CC(C)C)C(=O)N[C@@H](C)C(=O)N[C@H](C(=O)N[C@@H](Cc1ccc(O)cc1)C(=O)N1CCC[C@H]1C(=O)N[C@@H](CCCNC(=N)N)C(=O)N[C@H](C(=O)N[C@@H](CCC(=O)O)C(=O)N[C@H](C(=O)NCC(=O)N[C@@H](CO)C(=O)NCC(=O)N[C@@H](C)C(=O)N1CCC[C@H]1C(N)=O)[C@@H](C)O)[C@@H](C)O)[C@@H](C)O) [[N-terminal(C20 diacid-gGlu), des1, 23Y, 30S, 31G, 32A]mimylin] | 0.039 nM | 0.026 nM | 2.02 nM
4 | Ac-ASELSTAALGRLSAELHK([γGlu-C20 diacid])LATLPRTETGSGSP-NH2 [[N-terminal(acetyl), des1, 19K(C20 diacid-gGlu), 30S, 31G]mimylin] | 0.071 nM | 0.684 nM | –
5 | {C20 diacid-γGlu}-ASELSTAALGRLSAELHELATLPRTETGSGSY-NH2 (SMILES CC(C)C[C@H](NC(=O)[C@H](C)NC(=O)[C@H](C)NC(=O)[C@@H](NC(=O)[C@H](CO)NC(=O)[C@H](CC(C)C)NC(=O)[C@H](CCC(=O)O)NC(=O)[C@H](CO)NC(=O)[C@H](C)NC(=O)CC[C@H](NC(=O)CCCCCCCCCCCCCCCCCCC(=O)O)C(=O)O)[C@@H](C)O)C(=O)NCC(=O)N[C@@H](CCCNC(=N)N)C(=O)N[C@@H](CC(C)C)C(=O)N[C@@H](CO)C(=O)N[C@@H](C)C(=O)N[C@@H](CCC(=O)O)C(=O)N[C@@H](CC(C)C)C(=O)N[C@@H](Cc1c[nH]cn1)C(=O)N[C@@H](CCC(=O)O)C(=O)N[C@@H](CC(C)C)C(=O)N[C@@H](C)C(=O)N[C@H](C(=O)N[C@@H](CC(C)C)C(=O)N1CCC[C@H]1C(=O)N[C@@H](CCCNC(=N)N)C(=O)N[C@H](C(=O)N[C@@H](CCC(=O)O)C(=O)N[C@H](C(=O)NCC(=O)N[C@@H](CO)C(=O)NCC(=O)N[C@@H](CO)C(=O)N[C@@H](Cc1ccc(O)cc1)C(N)=O)[C@@H](C)O)[C@@H](C)O)[C@@H](C)O) [[N-terminal(C20 diacid-gGlu), des1, 30S, 31G, 33Y]mimylin] | 0.023 nM | 0.029 nM | –

More lines, in order of falling IC50 [1], values ahead:

Row | IC50 [1] | IC50 [2] | IC50 [3] | Molecule
6 | 0.072 nM | 0.162 nM | 22.9 nM | {C18 diacid-γGlu}-ASELTTAVLGRLTAELHELETLPRTETGTGTP-NH2 (SMILES CC(C)C[C@H](NC(=O)[C@H](CCC(=O)O)NC(=O)[C@H](C)NC(=O)[C@@H](NC(=O)[C@H](CC(C)C)NC(=O)[C@H](CCCNC(=N)N)NC(=O)CNC(=O)[C@H](CC(C)C)NC(=O)[C@@H](NC(=O)[C@H](C)NC(=O)[C@@H](NC(=O)[C@@H](NC(=O)[C@H](CC(C)C)NC(=O)[C@H](CCC(=O)O)NC(=O)[C@H](CO)NC(=O)[C@H](C)NC(=O)CC[C@H](NC(=O)CCCCCCCCCCCCCCCCC(=O)O)C(=O)O)[C@@H](C)O)[C@@H](C)O)C(C)C)[C@@H](C)O)C(=O)N[C@@H](Cc1c[nH]cn1)C(=O)N[C@@H](CCC(=O)O)C(=O)N[C@@H](CC(C)C)C(=O)N[C@@H](CCC(=O)O)C(=O)N[C@H](C(=O)N[C@@H](CC(C)C)C(=O)N1CCC[C@H]1C(=O)N[C@@H](CCCNC(=N)N)C(=O)N[C@H](C(=O)N[C@@H](CCC(=O)O)C(=O)N[C@H](C(=O)NCC(=O)N[C@H](C(=O)NCC(=O)N[C@H](C(=O)N1CCC[C@H]1C(N)=O)[C@@H](C)O)[C@@H](C)O)[C@@H](C)O)[C@@H](C)O)[C@@H](C)O) [[N-terminal(C18 diacid-gGlu), des1, 6T, 9V, 14T, 21E, 30T, 31G, 32T]mimylin]
7 | 0.062 nM | 0.046 nM | 3.17 nM | {C20 diacid-γGlu}-ASELSTASLGRLSAELHELSTYPRTETGSGSY-NH2 (SMILES CC(C)C[C@H](NC(=O)[C@H](CO)NC(=O)[C@H](C)NC(=O)[C@@H](NC(=O)[C@H](CO)NC(=O)[C@H](CC(C)C)NC(=O)[C@H](CCC(=O)O)NC(=O)[C@H](CO)NC(=O)[C@H](C)NC(=O)CC[C@H](NC(=O)CCCCCCCCCCCCCCCCCCC(=O)O)C(=O)O)[C@@H](C)O)C(=O)NCC(=O)N[C@@H](CCCNC(=N)N)C(=O)N[C@@H](CC(C)C)C(=O)N[C@@H](CO)C(=O)N[C@@H](C)C(=O)N[C@@H](CCC(=O)O)C(=O)N[C@@H](CC(C)C)C(=O)N[C@@H](Cc1c[nH]cn1)C(=O)N[C@@H](CCC(=O)O)C(=O)N[C@@H](CC(C)C)C(=O)N[C@@H](CO)C(=O)N[C@H](C(=O)N[C@@H](Cc1ccc(O)cc1)C(=O)N1CCC[C@H]1C(=O)N[C@@H](CCCNC(=N)N)C(=O)N[C@H](C(=O)N[C@@H](CCC(=O)O)C(=O)N[C@H](C(=O)NCC(=O)N[C@@H](CO)C(=O)NCC(=O)N[C@@H](CO)C(=O)N[C@@H](Cc1ccc(O)cc1)C(N)=O)[C@@H](C)O)[C@@H](C)O)[C@@H](C)O) [[N-terminal(C20 diacid-gGlu), des1, 9S, 21S, 23Y, 30S, 31G, 33Y]mimylin]
8 | 0.042 nM | 0.115 nM | – | Ac-ASELSTAALGRLSAK([γGlu-C20 diacid])LHELATLPRTETGSGSP-NH2 [[N-terminal(acetyl), des1, 16K(C20 diacid-gGlu), 30S, 31G]mimylin]
9 | 0.017 nM | 0.017 nM | – | {C20 diacid-γGlu}-ASELSTAALGRLS[dE]ELHELATLPRTETGSGSP-NH2 (SMILES CC(C)C[C@H](NC(=O)[C@H](C)NC(=O)[C@H](C)NC(=O)[C@@H](NC(=O)[C@H](CO)NC(=O)[C@H](CC(C)C)NC(=O)[C@H](CCC(=O)O)NC(=O)[C@H](CO)NC(=O)[C@H](C)NC(=O)CC[C@H](NC(=O)CCCCCCCCCCCCCCCCCCC(=O)O)C(=O)O)[C@@H](C)O)C(=O)NCC(=O)N[C@@H](CCCNC(=N)N)C(=O)N[C@@H](CC(C)C)C(=O)N[C@@H](CO)C(=O)N[C@H](CCC(=O)O)C(=O)N[C@@H](CCC(=O)O)C(=O)N[C@@H](CC(C)C)C(=O)N[C@@H](Cc1c[nH]cn1)C(=O)N[C@@H](CCC(=O)O)C(=O)N[C@@H](CC(C)C)C(=O)N[C@@H](C)C(=O)N[C@H](C(=O)N[C@@H](CC(C)C)C(=O)N1CCC[C@H]1C(=O)N[C@@H](CCCNC(=N)N)C(=O)N[C@H](C(=O)N[C@@H](CCC(=O)O)C(=O)N[C@H](C(=O)NCC(=O)N[C@@H](CO)C(=O)NCC(=O)N[C@@H](CO)C(=O)N1CCC[C@H]1C(N)=O)[C@@H](C)O)[C@@H](C)O)[C@@H](C)O) [[N-terminal(C20 diacid-gGlu), des1, 15e, 30S, 31G]mimylin]
10 | 0.01 nM | 0.046 nM | – | Ac-ASK([γGlu-C20 diacid])LSTAALGRLSAELHELATLPRTETGSGSP-NH2 [[N-terminal(acetyl), des1, 4K(C20 diacid-gGlu), 30S, 31G]mimylin]
